From the supplement of paper PMC10201428
± gives the standard deviation of the averaged measurements.

What was measured:
[1] = tested on: VchCAST RNA-guided transposition machinery (E. coli BL21(DE3) host, lacZ target); test: relative integration efficiency (T-RL orientation) vs wild-type transposon end (log2 (normalized fold change)); transposon end mutated: right end (5 bp flank + 75 bp right end); higher = more efficient transposition
In short: (§1)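 A T7-driven effector plasmid encoding a CRISPR array, tniQ-cas8-cas7-cas6 and tnsA-tnsB-tnsC was co-transformed into E. coli BL21(DE3) together with a pUC57 mini-transposon donor holding barcoded pools of 1549 left-end or 1849 right-end variants. Transformants were plated with 0.1 mM IPTG at 37°C for 18 h. Illumina sequencing of PCR-amplified input plasmids and genomic integration junctions gave barcode abundances, and relative integration efficiency is their output/input fold change, normalised to reference barcodes and log-transformed.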

[2] = tested on: VchCAST RNA-guided transposition machinery (E. coli BL21(DE3) host, lacZ target); test: relative integration efficiency (T-LR orientation) vs wild-type transposon end (log2 (normalized fold change)); transposon end mutated: right end (5 bp flank + 75 bp right end); higher = more efficient transposition
In short: as §1

Row | Sequence | relative integration efficiency (log2) [1] | relative integration efficiency (log2) [2]
1 | ACATTTGTTGATAACCAACGCCCCGTCGCCGGCACAAACGCCCGGTCGCCGGCTCAACAAACGCCCGGTCGCGGTACTCTGATCATAGTCAGACCAACATTGCTACGACCCGTATTCGCACCGACAC | -8.29 ± 1.1 | -6.65 ± 2
2 | ACATTTGTTGATACAACCATAAAATGATAATTAATAATTATTTATAATCAGCAACTTAACCACAACACCCATAAATTGATAATTATCACACCCATAAATTGATATTGCCTCTGATCATAGTCAGACC | -3.94 ± 1.1 | -2.74 ± 0.53
3 | ACATTTGTTGATAAAACCATAAAATGATTATTACACCCATAAATTGATAATTATCACACCCATAAATTGATATTGCCTCTGATCATAGTCAGACCAACATTGCTACGACCCGTATTCGCACCGACAC | -1.05 ± 0.087 | -0.755 ± 0.22
4 | ACATTTGTTGATACAACCATAAAATGATAATTACACCCATAAATTGATAATTATCACACCACGCCCGGTCGCGGTAAGAGGATCATAGTCAGACCAACATTGCTACGACCCGTATTCGCACCGACAC | -0.546 ± 0.089 | 2.46 ± 0.034
5 | ACATTTGTGTATACAACCATAAAATGATAATTACACCCATAAATTGATAATTATCACACCCATAAATTGATATTGCCTCTGATCATAGTCAGACCAACATTGCTACGACCCGTATTCGCACCGACAC | 0.00813 ± 0.2 | -0.811 ± 0.61
6 | ACATTTGTTGATACACCCATAAATTGATATTGCCAACCATAAAATGATAATTATCACAACCATATATTGATATCTCCTCTGATCATAGTCAGACCAACATTGCTACGACCCGTATTCGCACCGACAC | -0.961 ± 0.18 | -0.207 ± 0.002
7 | ACATTTGTGGATACAACCATAAAATGATAATTACACCCATAAATTCATAATTATCACACCCAATTTAACTATAACGCTCTGATCATAGTCAGACCAACATTGCTACGACCCGTATTCGCACCGACAC | -1.9 ± 0.49 | 0.877 ± 0.27
8 | ACATTTGTTGATACAACCATAAAATGATAATTACACCCATACCTTGATAATTATCACACCCATAAATTGATATTGCCTCTGATCATAGTCAGACCAACATTGCTACGACCCGTATTCGCACCGACAC | -0.707 ± 0.089 | -0.978 ± 0.071
9 | ACATTTGTTGATACAACCATAAAATGATAATTACACCCATAAATTGATAAGGCGCACACCCATAAATTGATATTGCCTCTGATCATAGTCAGACCAACATTGCTACGACCCGTATTCGCACCGACAC | -0.436 ± 0.083 | -0.0146 ± 0.0051
10 | ACATTTGTTGATACAACCATAAAATGATAATTACACCCATAAATTGATAATTATCACACCCATAAAGGTCGCGGTAAGAGGATCATAGTCAGACCAACATTGCTACGACCCGTATTCGCACCGACAC | -0.82 ± 0.057 | 2.16 ± 0.14
11 | ACATTTGTTGATACAACCATAAAATGATAATTAATAATTATTTATAATCAGCAACTTAACCACACACCCATAAATTGATAATTATCAACAAACGCCCGGTCGCGGTACTCTGATCATAGTCAGACCA | -2.65 ± 0.4 | 0.76 ± 0.68
12 | ACATTTGTTGATACAACCATAAAAGGATCATTACCCCCATAAATTGATAATTATCACACCCCATTTAACTATAACGCTCTGATCATAGTCAGACCAACATTGCTACGACCCGTATTCGCACCGACAC | -2.55 ± 0.35 | 1.16 ± 0.12
13 | ACATTTGTTGATACAACCATAAAATGATAATTACACCCATAAATTGATAATTATACACCCCATAAATTGATATTGCCTCTGATCATAGTCAGACCAACATTGCTACGACCCGTATTCGCACCGACAC | -1.07 ± 0.23 | 1.28 ± 0.067
14 | ACATTTGTTGATACAACCATAAAAGGATAATTACACCCATCAATTGATAATTATCACACCCCATTTAACTATAACGCTCTGATCATAGTCAGACCAACATTGCTACGACCCGTATTCGCACCGACAC | -2.2 ± 0.15 | 1.27 ± 0.19
15 | ACATTTGTTGATACAACCATAAAATGATCATTACCCCCATAAATTGATAATTATCACACCCAATTTAACTATAACGCTCTGATCATAGTCAGACCAACATTGCTACGACCCGTATTCGCACCGACAC | -1.95 ± 0.25 | 1.59 ± 0.045
16 | ACATTTGTTGATATAATTATCATTTTATGGTTGCAACCATAAAATGATAATTATGATAATTATCATTTTATGGTTGCTCTGATCATAGTCAGACCAACATTGCTACGACCCGTATTCGCACCGACAC | -2.97 ± 0.69 | -4.33 ± 0.53
17 | ACATTTGTTGATACAACCATAAAATGATAATTACACCCATAACGGTCGCCGGCGACACAAACGCCCGGTCGCGGTAAGAGGATCATAGTCAGACCAACATTGCTACGACCCGTATTCGCACCGACAC | -2.35 ± 0.24 | 0.674 ± 0.11
18 | ACATTTGTTTCTACAACCATAAAATGATAATTACACCCATAAATTGATAATTATCACACCCATAAATTGATATTGCCTCTGATCATAGTCAGACCAACATTGCTACGACCCGTATTCGCACCGACAC | -1.06 ± 0.14 | -3.43 ± 0.18

Row | Sequence | relative integration efficiency (log2) [1] | relative integration efficiency (log2) [2]
19 | ACATTTGTTGATACAACCATAAAATGATAATTACACCCCGCCCGGTCGCCGGCGACACAAACGCCCGGTCGCGGTAAGAGGATCATAGTCAGACCAACATTGCTACGACCCGTATTCGCACCGACAC | -2.33 ± 0.061 | 0.746 ± 0.13
20 | ACATTTGTTGATACACCCATAAATTGATAATTACAACCATAAAATGATAATTATCACAACCATAAAATGATAATTACTCTGATCATAGTCAGACCAACATTGCTACGACCCGTATTCGCACCGACAC | -0.638 ± 0.31 | -0.939 ± 0.36
21 | ACATTTGTTGATACAACCATAAAATGATAATTACACCCATAAATTGATAATTCGACACAAACGCCCGGTCGCGGTAAGAGGATCATAGTCAGACCAACATTGCTACGACCCGTATTCGCACCGACAC | 0.636 ± 0.17 | 3.748 ± 0.033
22 | ACATTTGTTGATACAACCATAAAATGATAATTACACCCATAAATTGATAATTATCACACCCATAAATTGATATTGCCTCTATGTACACTGATGAGTTATTACACCTCAAGTTCAATGGCACCGACAC | -0.228 ± 0.28 | -0.281 ± 0.31
23 | ACATTTGTTGATACAACCATCAAATGGTAATTACACCCCTAAATTGATAATTATCACACCCAATTTAACTATAACGCTCTGATCATAGTCAGACCAACATTGCTACGACCCGTATTCGCACCGACAC | -4.79 ± 0.36 | -2.01 ± 0.77
24 | ACATTTGTTGATACAACCATAAAAGGATCATTACCCCCATAAATTGATAATTATCCCACCCAATTTAACTATAACGCTCTGATCATAGTCAGACCAACATTGCTACGACCCGTATTCGCACCGACAC | -2.19 ± 0.29 | 0.912 ± 0.11
25 | ACATTTGTTGATACAACCATTAAATGGTAATTCCACCCAAATATTGATAATTATCACACCCAATTTAACTATAACGCTCTGATCATAGTCAGACCAACATTGCTACGACCCGTATTCGCACCGACAC | -2.19 ± 0.42 | 0.805 ± 0.3
26 | ACATTTGTTGATACAACCATAAAATGATAATTACACCCATAAATTGATAATTATCACACCCATAAATTGATATTGCCTCTGATAACTTCGTATAATGTATGCTATACGAAGTTATTCGCACCGACAC | -0.484 ± 0.19 | 0.719 ± 0.031
27 | ACATTTGTTCATACAACCCTAAAATGATAATTACACCCATAAATTGATAATTATCACACCCAATTTAACTATAACGCTCTGATCATAGTCAGACCAACATTGCTACGACCCGTATTCGCACCGACAC | -2.24 ± 0.22 | -1.03 ± 0.5
28 | ACATTTGTTGATACCACCATCAAATGATAATTACACCCCTACATTGATAATTATCACACCCAATTTAACTATAACGCTCTGATCATAGTCAGACCAACATTGCTACGACCCGTATTCGCACCGACAC | -5.58 ± 0.31 | -2.42 ± 0.59
29 | ACATTTGTTGATACAACCATAAAATGATAATTACACCCATAAATCTGAAATTATCACACCCATAAATTGATATTGCCTCTGATCATAGTCAGACCAACATTGCTACGACCCGTATTCGCACCGACAC | -0.888 ± 0.057 | -1.08 ± 0.29
30 | ACATTTGTTGATACAACCATAAAATGATAATTACACCCATAAATTGATAATTATCAACACCCATAAATTGATATTGCCTCTGATCATAGTCAGACCAACATTGCTACGACCCGTATTCGCACCGACA | -0.35 ± 0.052 | 0.619 ± 0.036
31 | ACATTTGTTGATACACCCATAAATTGATATTGCCACCCATAAATTGATATTGCTCAGTGGGTATTTAACTATAACGCTCTGATCATAGTCAGACCAACATTGCTACGACCCGTATTCGCACCGACAC | -1.66 ± 0.34 | 2.19 ± 0.12
32 | ACATTTGTTGATACAACCATAAAGTGATATTTACAACCATAAAGTGATATTTATCACACCCATAAATTGATATTGCCTCTGATCATAGTCAGACCAACATTGCTACGACCCGTATTCGCACCGACAC | -0.0388 ± 0.082 | -0.0332 ± 0.27
33 | ACATTTGTTGATACCACCATCAAATGGTAATTCCACCCCTACATTGATAATTATCACACCCAATTTAACTATAACGCTCTGATCATAGTCAGACCAACATTGCTACGACCCGTATTCGCACCGACAC | -6.99 ± 0.2 | -3.726 ± 0.034
34 | ACATTTGTTGATACAACCATAAAATGATAATTACTCTGATCATAGTCACACCCATAAATTGATAATTATCACACCCATAAATTGATATTGCGACCAACATTGCTACGACCCGTATTCGCACCGACAC | -4.9525 ± 0.00028 | -1.68 ± 0.39
35 | ACATTTGTTGATACAACCATAAGTTGATATTTTCAACCATAAGTTGATATTTTTCACACCCATAAATTGATAATTACTCTGATCATAGTCAGACCAACATTGCTACGACCCGTATTCGCACCGACAC | 0.0466 ± 0.027 | -0.132 ± 0.17
